Source: US20160355591A1 (published 2016)

Experiments:
[1] = target: T1, HLA-DR (human leukocyte antigen-DR) on human lymphoma and leukemia cells and human lymphocytes (human, UniProt P01903 26-254; P01911 30-266); test: competition cell-binding assay, unlabeled antibody against 125I-labeled L243 antibody on human lymphoma cells (FIG. 6: Raji)
T1 construct: whole, on cells; Natural antigen on Raji, Daudi, Ramos, Namalwa and other cell lines; also called cell surface antigen (Ag) recognized by L243
Experimental: (§1) Unbound Abs were removed by washing the cells in PBS. The radioactivity associated with cells was determined after washing.

[2] = target: T1, HLA-DR (human leukocyte antigen-DR) on …; test: direct cell surface saturation binding of 125I-labeled antibody to Daudi cells, 4 C, Scatchard plot; apparent dissociation constant
Experimental: The cell-associated radioactivity was counted, specific binding of radiolabeled antibody to the cell surface antigen calculated, and Scatchard plot analysis was then applied to determine the maximum number of binding sites per cell and the apparent antigen-binding affinity constant.
To measure specific cell surface antigen binding, two sets of cells were prepared and used in the binding assay to estimate the non-specific and total binding of radioactivities, respectively. The cells for non-specific binding were pre-incubated with excess amount of unlabled Ab to block all surface antigen sites prior to adding the radiolabeled antibody, while those for total binding were pre-incubated in PBS. […] The cell-associated radioactivity was counted. The specific cell surface binding of the radiolabeled antibody at a given concentration of radiolabeled antibody was calculated as: the counts of total binding minus the counts of non-specific binding.

[3] = target: T1, HLA-DR (human leukocyte antigen-DR) on …; test: competition cell-binding assay on human lymphoma cells; reference mL243
Experimental: as §1

| Binder | EC50 [1] [nM] | Kd [2] [nM] | fold stronger binding avidity than mL243 [3] [fold] |
| --- | --- | --- | --- |
| mL243 (murine L243 anti-HLA-DR monoclonal antibody, IgG2a, ATCC HB55) (antibody, V domains shown, Murine IgG2a from hybridoma ATCC HB55; also called mL234; L234) VH: QIQLVQSGPELKKPGETVKISCKASGFTFTNYGMNWVKQAPGKGLKWMGWINTYTREPTYADDFKGRFAFSLETSASTAYLQINNLKNEDTAKYFCARDITAVVPTGFDYWGQGTTLTVSS VL: DIQMTQSPASLSVSVGETVTITCRASENIYSNLAWYRQKQGKSPQLLVFAASNLADGVPSRFSGSGSGTQYSLKINSLQSEDFGDYYCQHFWTTPWAFGGGTNLEIKR | ~16.5 | 14 |  |
| hL243γ4P (IMMU-114; humanized L243, IgG4/K isotype with Ser241Pro hinge mutation) (antibody, V domains shown, Same V regions as hL243; also called hL243g4P; hL243gamma4P) VH: QVQLQQSGSELKKPGASVKVSCKASGFTFTNYGMNWVKQAPGQGLKWMGWINTYTREPTYADDFKGRFAFSLDTSVSTAYLQISSLKADDTAVYFCARDITAVVPTGFDYWGQGSLVTVSS VL: DIQLTQSPSSLSASVGDRVTITCRASENIYSNLAWYRQKPGKAPKLLVFAASNLADGVPSRFSGSGSGTDYTFTISSLQPEDIATYYCQHFWTTPWAFGGGTKLQIKR | ~7 | 2.6 | ~2 |
